Laboratory results: patent US12059562B2, “Systems for electrical stimulation” (priority 2018, dated 2024)

Test system: Micrococcus lysodeikticus cells
Experiment: Lysozyme enzyme activity assay
Assay type: biochemical
Conditions: micropost tips 80% lysozyme and 20% PEO 200k versus uncompressed powder
Method: To measure the activity of lysozyme, the assay provided by Sigma Aldrich was used which measures the amount of lysed Micrococcus lysodeikticus cells. Briefly, a 200 unit/mL Lysozyme solution in 50 mM Potassium Phosphate Buffer was added to a 0.015% [w/v] Micrococcus lysodeikticus cell suspension in the same buffer. The decrease was recorded in A450 over 5 minutes. Nine micropost tips were fabricated from 80% lysozyme and 20% PEO 200k and dissolved sets of three micropost tips together. Triplicate assays were performed on each dissolved solution for a total of nine tests and the results were compared to the results of a solution made with lysozyme that was not compressed into a micropost tip.

lysozyme
enzymatic activity after the manufacturing process: maintain their activity
